The record followed here is patent publication US20170218430.

The series relates to methylarginine peptide (SEQ ID NO:1).

With “TbJmJ1 fusion protein (MBP-JmJ1, Jumonji Fusion Protein 1)”, the “demethylation of the peptide, read as gain of anti-RG signal on slot blot (6 hours, 30 C)” value was “giving a positive reaction with anti-RG in a dose-dependent manner”.

In the case of “TbJmJ2 fusion protein (MBP-JmJ2, Jumonji Fusion Protein 2)”, the “demethylation of the peptide, read as gain of anti-RG signal on slot blot (6 hours, 30 C)” value is given as “giving a positive reaction with anti-RG in a dose-dependent manner” and the “demethylation of the peptide, read as loss of anti-mRG signal on slot blot (20 hours, 22.5 C)” value was “indicates a concentration-dependent decrease in the methylation status of the GmRG peptide”.
